This note sets out measurements from article PMC9563126, “Identification of a flavonoid C-glycosyltransferase from fern species Stenoloma chusanum and the application in synthesizing flavonoid C-glycosides in Escherichia coli” (Microbial Cell Factories, 2022).

Substrate in data set [1]: O=C(CCc1ccc(O)cc1)c1c(O)cc(O)cc1O
The experiment in a line: HPLC glycosylation assay, Lineweaver-Burk. It counts as biochemical, Odontosoria chinensis. Conditions: 1 mM UDP-glucose, 200 mM MES pH 6.5, 1 mM DTT, 30 °C, 15 min, acceptor varied. An excerpt: (§1) HPLC glycosylation assay, Lineweaver-Burk on ScCGT1

Substrate in data set [2]: O=C1CC(O)(c2ccc(O)cc2)Oc2cc(O)cc(O)c21
The data set can be described thus: HPLC glycosylation assay, Lineweaver-Burk. The conditions noted are these: 1 mM UDP-glucose, 200 mM MES pH 6.5, 1 mM DTT, 30 °C, 15 min, acceptor varied. It is filed as biochemical, Odontosoria chinensis.
Excerpt: as §1

B1: ScCGT1 (Odontosoria chinensis) (protein)
chain: MASCDTGLLSDQRHHALMFPYPVQGHIQPFMRLSKLLATNYGFTISFFNSEENHRRLLADRDEPASQEDRAEDAEGKPLDFRMLFLPDVLPSSTEVEQMSAGTHIEKSHVLLSKTFLNTDPAALETLIRSQSPPITCLILDPLVTVIAPGLGEKLGITSLIFFPASAASLATAIRSGEVDGDAKQMTRIVGAPVLDVKEVNPFLSICGRGHSDFMARLFTQPFRKKLIKANDIILINTVEELEESTLKHLQEENKVCAIGPVLPPWGAFAVPTLWSQDYSCLDWLDKQPAASVLFVSFGSLATLSSTQLSDLALGLEASNQRILWVTRPDQIYGKAPDLPSDFLERIKDRILVFSWVPQLHVLCHTSVGGFLSHCGWNSTIESIAAGVPILAWPFFGDQMLNAKCVVEKWRIGLALTGAGGAMSKAVVETRVKDLMEGDLSKELRNRAQNLKHIVVKALSHGGSSSSNLQKLFGHL
Turning to B1, in data set [1], the Km (in general, the substrate concentration at which the rate is half of its maximum) came out at 23.8 ± 2.8 µM; the Vmax (in general, the rate approached at saturating substrate) came to 0.011 µmol/min/mg; the kcat (commonly the maximal rate divided by the concentration of active sites) is 0.0133 ± 0.000333 s⁻¹; the kcat/Km (in general, the turnover number divided by the Michaelis constant) was 560 M⁻¹ s⁻¹. Moreover, in data set [2], the Km is 17.5 ± 2.0 µM, the maximal velocity (Vmax) came to 0.0115 µmol/min/mg, the kcat turned out to be 0.0133 ± 0.000167 s⁻¹ and the specificity constant (kcat/Km) was found to be 795 M⁻¹ s⁻¹.

B2: ScCGT1 (Odontosoria chinensis; P164T) (protein)
chain: MASCDTGLLSDQRHHALMFPYPVQGHIQPFMRLSKLLATNYGFTISFFNSEENHRRLLADRDEPASQEDRAEDAEGKPLDFRMLFLPDVLPSSTEVEQMSAGTHIEKSHVLLSKTFLNTDPAALETLIRSQSPPITCLILDPLVTVIAPGLGEKLGITSLIFFTASAASLATAIRSGEVDGDAKQMTRIVGAPVLDVKEVNPFLSICGRGHSDFMARLFTQPFRKKLIKANDIILINTVEELEESTLKHLQEENKVCAIGPVLPPWGAFAVPTLWSQDYSCLDWLDKQPAASVLFVSFGSLATLSSTQLSDLALGLEASNQRILWVTRPDQIYGKAPDLPSDFLERIKDRILVFSWVPQLHVLCHTSVGGFLSHCGWNSTIESIAAGVPILAWPFFGDQMLNAKCVVEKWRIGLALTGAGGAMSKAVVETRVKDLMEGDLSKELRNRAQNLKHIVVKALSHGGSSSSNLQKLFGHL
Regarding B2, in data set [1], the Km was determined as 29.8 ± 2.5 µM, the maximum rate (Vmax) was 0.0334 µmol/min/mg, the kcat was found to be 0.04 ± 0.000833 s⁻¹ and the kcat/Km was 1360 M⁻¹ s⁻¹. Also, in data set [2], the Km was found to be 31.7 ± 2.9 µM, the Vmax was determined as 0.0399 µmol/min/mg, the catalytic constant (kcat) is 0.0483 ± 0.001 s⁻¹ and the kcat/Km amounted to 1520 M⁻¹ s⁻¹.
